Measurements published in patent publication US20220275053A1, “MODIFIED […] PEPTIDE LIGANDS” (BicycleTx Limited, priority 2019, published 2022).
*1 amine or outer side, *2 acyl side, *3 side chain or, on linkers, in order; H or OH if unused. Bridges are numbered along the chain shown (N, C = ends). Where no end group is shown, it is not given here. [ ]: non-standard residue; d: D form. PYA = propargyl-acid (alkyne used for click attachment); TATA = O=C(CC[*:1])N1CN(C(=O)CC[*:2])CN(C(=O)CC[*:3])C1; tBuAla = CC(C)(C)C[C@H](N)C(=O)O; Nle = CCCC[C@H](N)C(=O)O

Assays:
[1] = molecular target: T1, CD137 (Homo sapiens, UniProt Q07011); assay: Fluorescent multimers human immune cell direct binding assay (FACS); conditions: FIG. 3A
T1 construct: Human peripheral blood mononuclear cells (PBMCs) were isolated from buffy coats from two donors; endogenous in cells
T1 sequence (Q07011 24-255): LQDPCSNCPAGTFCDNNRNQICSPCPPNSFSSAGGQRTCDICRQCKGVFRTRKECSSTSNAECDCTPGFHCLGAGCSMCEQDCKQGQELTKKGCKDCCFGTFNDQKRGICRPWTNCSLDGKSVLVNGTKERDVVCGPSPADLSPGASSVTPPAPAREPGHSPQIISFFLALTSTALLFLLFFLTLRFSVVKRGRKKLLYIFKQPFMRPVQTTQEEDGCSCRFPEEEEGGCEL
Description: Human peripheral blood mononuclear cells (PBMCs) were isolated from buffy coats from two donors according to standard protocols. PBMCs were used for the next step or alternatively CD8+ T cells were then isolated from the PBMCs with a MACS CD8+ T cell isolation kit (negative bead selection) according to the manufacturer's protocol (Miltenyi Biotec). PBMCs or purified CD8+ T cells were then activated for 24 hours in tissue culture flasks coated with CD3 antibody in R10 media (RPMI1640+10% FBS+1× Pen-Strep). Alternatively, cells were incubated in R10 media containing 1 μg/ml of soluble CD3 antibody (OKT3) for 24 hours. Cells were then transferred to CD3-coated 96-well flat bottom plates and incubated in R10 media in the presence of fluorescent CD137 multimers or a fluorescent EphA2 bicyclic peptide monomer (BCY0215), which was used as a negative control, at different concentrations for 1 hour at 37° C. After 1 hour, cells were transferred to a V-bottom plate and washed and stained for FACs analysis. Briefly, cells were stained in 1× Live/Dead BV510 for 15 minutes, washed, and then surface stained with the following antibodies: CD8-BV785 (or CD3-BV605) and CD137-PECy5 (diluted 1:100). Cells were then washed and fixed in 2% paraformaldehyde (PFA). Cells were run on the BD FACSCelesta and FCS files were analyzed in FlowJo. […]

[2] = molecular target: T2, CD137 (Macaca fascicularis, UniProt A9YYE7); assay: Fluorescent multimer cyno immune cell direct binding assay (FACS); design: species or system cynomolgus monkey; conditions: FIG. 4
T2 construct: Cryopreserved PBMCs were purchased from Worldwide Primates and thawed according to standard protocol
T2 sequence (A9YYE7 1-254): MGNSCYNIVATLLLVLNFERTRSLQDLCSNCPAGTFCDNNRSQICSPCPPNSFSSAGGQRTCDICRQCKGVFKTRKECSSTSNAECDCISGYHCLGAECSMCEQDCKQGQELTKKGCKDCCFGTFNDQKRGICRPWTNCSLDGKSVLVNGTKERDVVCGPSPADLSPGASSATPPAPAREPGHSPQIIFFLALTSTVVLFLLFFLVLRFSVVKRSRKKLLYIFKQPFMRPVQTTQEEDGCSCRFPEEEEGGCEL
Description: Cryopreserved PBMCs were purchased from Worldwide Primates and thawed according to standard protocol. CD8+ T cells were then isolated from the PBMCs with a MACS CD8+ T cell isolation kit (negative bead selection) according to the manufacturer's protocol (Miltenyi Biotec). Purified CD8+ T cells were then activated for 48 hours 96 well plates coated with CD3 antibody (1 μg/ml) in R10 media (RPMI1640+10% FBS+1× Pen-Strep). Cells were incubated in R10 media in the presence of fluorescent CD137 multimers or a fluorescent EphA2 bicyclic peptide monomer (BCY0215), which was used as a negative control, at different concentrations for 1 hour at 37° C. After 1 hour, cells were transferred to a V-bottom plate and washed and stained for FACs analysis. Briefly, cells were stained in 1× Live/Dead BV510 for 15 minutes, washed, and then surface stained with the following antibodies: CD8-BV785 and CD137-PECy5 (diluted 1:100 in 2% FBS/PBS). Cells were then washed and fixed in 2% paraformaldehyde (PFA). Cells were run on the BD FACSCelesta and FCS files were analyzed in FlowJo. Cells were gated on Single/Live/Lymphocytes/CD8+/CD137+ or CD137−. The FITC geometric mean of the CD137+ population is shown.

[3] = molecular target: T1, CD137; assay: Fluorescent multimers human T-cell competition (receptor occupancy) assay with BCY7340 as labelling reagent; assay type: binding; conditions: unlabelled multimer titrated, 30 minutes at room temperature; 10 nM BCY7340 label; FIG. 5
Description: Human PBMCs were isolated from fresh buffy coats from two donors according to standard protocols. CD8+ T cells were then isolated from the PBMCs by negative magnetic bead selection with a MACS CD8+ T cell isolation kit (negative bead selection) according to the manufacturer's protocol (Miltenyi Biotec). Purified CD8+ T cells were then stimulated for 72 hours in plates coated with CD3 antibody (1 μg/ml) in R10 media (RPMI1640+10% FBS+1× Pen-Strep). Cells were then incubated with a range of concentrations of unlabelled CD137 multimer for 30 minutes at room temperature in 2% FBS. Cells were then washed and stained for FACS analysis. Briefly, cells were stained in 1× Live/Dead BV510 for 15 minutes, washed, and then surface stained with a primary antibody cocktail (CD8-BV785, CD3-BV605, and CD137-PECy5) that included a saturating concentration (10 nM) of BCY7340. Cells were incubated for 30 minutes at room temperature, washed, and fixed in 2% PFA. Cells were run on the BD FACSCelesta and FCS files were analyzed in FlowJo. Cells were gated on Single/Live/Lymphocytes/CD8+(or CD3+)/CD137+ or CD137−. The Alexa Fluor 488 geometric mean of the CD137+ population is shown.

[4] = molecular target: T3, human CD137 (human, UniProt Q07011 24-255); assay: flow cytometry on CD3-stimulated human PBMCs, apparent affinity (kd,app), CD4+ CD137+ population, donor 217071
T3 construct: whole, on cells; Endogenous receptor on CD3-stimulated human PBMCs or purified CD8+ T cells; also called CD137 receptor; 4-1BB
T3 sequence (Q07011 24-255): as the sequence (Q07011 24-255) above
Description: (§1) Plates were then incubated for 1 hour at 37° C., 5% CO₂. Post-incubation, plate was centrifuged at 500 rpm for 5 minutes and supernatant discarded. Samples were then washed once in 200 μL of 1× phosphate buffer saline (PBS; Gibco™ 10-010-023) at 500 rpm for 5 minutes. Cells were resuspended in 200 μL of PBS and transferred to a 96-well V-bottom polypropylene plate (Greiner Bio-One 651201). Samples were then centrifuged at 500 rpm for 5 minutes and supernatant was discarded.
(§2) Preparation of samples for flow cytometry: Zombie Violet™ Fixable Viability Dye (BioLegend® 423113) was prepared as a 1:1000 dilution in PBS and 100 μL of viability dye was added to each well and incubated in the dark at 4° C. for 30 minutes. Subsequently, wells were washed with 100 μL of PBS for 5 minutes at 500 rpm and supernatant was discarded. […] Cells resuspended in 200 μL of stain buffer were kept at 4° C. and in the dark until read by BD FACSCelesta™ flow cytometer and FCS files were analyzed in FlowJo™.
(§3) Cells were gated on lymphocytes→singlets→live→CD4+ or CD8+→CD137+/− and the geometric mean of Alexa Fluor® 488 (conjugated to BCY15416) was calculated from the CD137+ and CD137− populations shown below. […] Calculated binding affinity (kd,app) for each donor appear in Table 5. […]

[5] = molecular target: T3, human CD137; assay: flow cytometry on CD3-stimulated human PBMCs, apparent affinity (kd,app), CD8+ CD137+ population, donor 214026
Description: as §1, §2, §3

[6] = molecular target: T3, human CD137; assay: flow cytometry on CD3-stimulated human PBMCs, apparent affinity (kd,app), CD4+ CD137+ population, donor 214047
Description: as §1, §2, §3

[7] = molecular target: T3, human CD137; assay: flow cytometry on CD3-stimulated human PBMCs, apparent affinity (kd,app), CD8+ CD137+ population, donor 217071
Description: as §1, §2, §3

[8] = molecular target: T3, human CD137; assay: flow cytometry on CD3-stimulated human PBMCs, apparent affinity (kd,app), CD8+ CD137+ population, donor 214047
Description: as §1, §2, §3

[9] = molecular target: T3, human CD137; assay: flow cytometry on CD3-stimulated human PBMCs, apparent affinity (kd,app), CD4+ CD137+ population, donor 214026
Description: as §1, §2, §3

BCY7340: Fluorescent CD137 dimer: formula (II), CHM C, 2 x BCY7077, SA n=23, fluorescein modifier (CIEEGQYCFADPYMCAX; not fully specified; non-natural residues; cyclised or stapled)
binding potency relative to fluorescent trimer (BCY9932) and tetramer (BCY9931) ([1]; human CD137+ T cells): slightly less potent binding
binding to human CD137+ T cells (FITC geometric mean) ([1]; purified CD8+/CD137+ T cells from human PBMCs, 1 hour at 37° C.): bind to human CD137+ T cells in a dose responsive manner
binding potency relative to fluorescent trimer (BCY9932) and tetramer (BCY9931) ([2]; cyno CD137+ T cells): less potent binding
binding to cyno CD137+ T cells (FITC geometric mean) ([2]; purified CD8+/CD137+ T cells from cynomolgus monkey PBMCs, 1 hour at 37° C.): bind to cyno CD137+ T cells in a dose responsive manner

BCY8945: Non-modified CD137 multimer: 4 x BCY8927, hinge A, SA n=23, attachment Lys(PYA)3 (Ac-C[tBuAla]PK[dA]PYCFADPY[Nle]CA-NH2; linker 1-8-15 via TATA; not fully specified (residue 4); also: tetramer: 4 peptides on central hinge moiety A via spacer SA n=23)
level of free/unbound CD137 receptor on human T cells (BCY7340 binding) [3]: dose responsive decrease in unbound CD137 receptor

B1: BCY15416 (peptide)
peptide: Ac-C[tBuAla]PE[dK](PYA)PYCFADPY[Nle]CA
modifications: linker 1-8-15 via TATA; also: dimer: joined through PYA directly to central hinge moiety D, Alexa Fluor 488 on the hinge without spacer (formula (II))
notes: also called fluorescently labelled CD137 dimer; CD137 dimer
Kd [4]: 130 pM
Kd [5]: 114 pM
Kd [6]: 144 pM
Kd [7]: 130 pM
Kd [8]: 118 pM
Kd [9]: 875 pM
